{
  "source": "patent US20210130870",
  "about": "“VISUAL AND MODULAR DETECTION OF NUCLEIC ACIDS WITH ENZYME-ASSISTED NANOTECHNOLOGY” (National University of Singapore, published 2021)",
  "binders": {"B1": {"name": "HPV16 L2 aptamer/inverter recognition nanostructure (structured_DNA)", "DNA 1": "AAGTATCTGTAATAAAGTCACAATGTACAGTATTG", "DNA 2": "TGACTTTATTACAGATACTTCTACAACCCCGGTACCATCT"}},
  "molecular_target": "Taq DNA polymerase (UniProt P19821 P19821:1-832)",
  "sequence (P19821 whole entry, one chain of several)": "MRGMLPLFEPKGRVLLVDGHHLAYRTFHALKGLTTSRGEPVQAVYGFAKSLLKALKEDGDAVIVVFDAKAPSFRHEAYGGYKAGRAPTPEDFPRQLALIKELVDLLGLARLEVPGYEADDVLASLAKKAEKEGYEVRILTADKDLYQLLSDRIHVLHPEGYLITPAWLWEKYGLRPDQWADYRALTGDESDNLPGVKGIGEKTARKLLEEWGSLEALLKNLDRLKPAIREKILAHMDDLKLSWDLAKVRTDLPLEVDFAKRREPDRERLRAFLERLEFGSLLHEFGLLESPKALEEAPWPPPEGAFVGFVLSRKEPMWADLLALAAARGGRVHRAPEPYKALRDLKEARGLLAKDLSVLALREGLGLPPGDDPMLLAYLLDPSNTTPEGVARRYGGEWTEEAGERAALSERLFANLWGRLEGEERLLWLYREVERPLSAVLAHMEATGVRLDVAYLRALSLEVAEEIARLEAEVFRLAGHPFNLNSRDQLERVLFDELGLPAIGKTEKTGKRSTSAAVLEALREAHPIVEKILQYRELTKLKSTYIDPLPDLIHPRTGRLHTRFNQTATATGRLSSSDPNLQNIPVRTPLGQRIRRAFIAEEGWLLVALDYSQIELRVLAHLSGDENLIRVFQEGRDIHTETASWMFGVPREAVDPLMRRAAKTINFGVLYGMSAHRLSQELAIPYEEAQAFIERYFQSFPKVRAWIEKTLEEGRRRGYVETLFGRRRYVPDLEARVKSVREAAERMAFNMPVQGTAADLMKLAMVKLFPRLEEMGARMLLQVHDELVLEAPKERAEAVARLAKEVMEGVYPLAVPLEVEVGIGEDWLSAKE",
  "test": "BLI; 50 mM NaCl, 1.5 mM MgCl2, 50 mM Tris-HCl pH 8.5; immobilized biotin-aptamer; sensorgram only",
  "conditions": "tags: GoTaq (Promega); label: biotin on aptamer for BLI; 20 bp duplex with 20 nt inverter overhang, conserved region CAATGTACAGTATTG",
  "data": [
    {"binder": "B1", "values": [
      {"measurement": "binding result", "result": "binds"}
    ]}
  ]
}
